In patent US20160376343A1 (NATIONAL INSTITUTE FOR BIOTECHNOLOGY IN THE NEGEV, published 2016):

Biological target: T1, hIL-17A (human, UniProt Q16552 24-155)
T1 construct: Bought protein
Assay: ELISA on captured hIL-17A
Procedure: ELISA plates (Griener Microlon 96W) were incubated with 100 μl of 0.5 μg/ml goat α-hIL-17A antibodies (R&D Systems) for 1 hour, washed with PBS supplemented with 0.05% Tween-80 (PBST) and 100 μl of 0.35 μg/ml hIL-17A (R&D Systems or ProSpec Tany TechnoGene Ltd.) were added to the plate for an additional 1 hour. The plates were then washed with PBST and blocked by incubation with 100 μl of PBS supplemented with 3% skim milk for 1 hour. Following blocking, the plates were washed and incubated with 100 μl of the cleared lysate, cell media or purified protein generated (described above) at appropriate dilutions and shaken for 1 hour. hIL-17RA (R&D Systems) was applied at a concentration of 6.25 μg/ml as a positive control, and PBS supplemented with 1% BSA as a negative control. Plates were then washed with PBST, incubated with 100 μl of 0.05 μg/ml goat α-hIL-17RA antibodies (R&D Systems) followed by a secondary peroxidase-conjugated streptavidin (Jackson, 1:10000 dilution). Finally, 100 μl of the horseradish peroxidase (HRP) chromogenic 3,3′,5,5′-tetramethylbenzidine (TMB) substrate solution (Dako) were added. The reaction was stopped by the addition of 1 M sulfuric acid and recorded at 450 nm using a Tecan Infinite M200 plate reader.

T1 sequence (Q16552 24-155 limits assumed): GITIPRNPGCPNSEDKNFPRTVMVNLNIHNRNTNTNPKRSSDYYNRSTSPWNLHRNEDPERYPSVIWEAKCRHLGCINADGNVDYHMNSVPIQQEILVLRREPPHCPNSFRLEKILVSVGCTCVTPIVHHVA

Binder	IL-17A binding relative to the WT
V10 V60F (Fc fusion, Expressed in mammalian cells; not shown: human IgG1 engineered Fc from the mammalian expression vector) LRLLDHRAPVCSQPGLNCTVKNSTCLDDSWIHPRNLTPSSPKDLQIQLHFAHTQQGDLFPVAHIEWTLQTDASILYLEGAELSVLQLNTNERLCVRFEFLSKLRHHHKRWRFTFSHFVVDPGQEYEVTVHHLPKPIPDGDPNHQSKNFLVPDCEHPRMKVTTPCMSSGSLWDPNITVETLEAHQLRVSFTLWNESTHYQILLTSFPHMENHSCFEHMHHIPAPRPEEFHQRSNVTLTLRNLKGCCRHQVQIQPFFSSCLNDCLRHSATVSCPEMPDTPEPIPDYMPLW	10%
V3 W244G (Fc fusion, Expressed in mammalian cells; not shown: human IgG1 engineered Fc from the mammalian expression vector) LRLLDHRAPVCSQPGLNCTVKNSTCLDDSWIHPRNLTPSSPKDLQIQLHFAHTQQGDLFPVAHIEWTLQTDASILYLEGAELSVLQLNTNERLCVRFEFLSKLRHHHKRWRFTFSHFVVDPGQEYEVTVHHLPKPIPDGDPNHQSKNFLVPDCEDARMKVTTPCMSSGSLWDPNITVETLEAHQLRVSFTLWNESTHYQILLTSFPHMENHSCFEHMHHIPAPRPEEFHQRSNVTLTLRNLKGCCRHQVQIQPFFSSCLNDCLRHSVTVSCPEMPDTPEPIPDYMPLW	65%

The remaining lines, values ahead:

IL-17A binding relative to the WT	Binder
45%	V3 K109R (Fc fusion, Expressed in mammalian cells; not shown: human IgG1 engineered Fc from the mammalian expression vector) LRLLDHRAPVCSQPGLNCTVKNSTCLDDSWIHPRNLTPSSPKDLQIQLHFAHTQQGDLFPVAHIEWTLQTDASILYLEGAELSVLQLNTNERLCVRFEFLSKLRHHHRRWRFTFSHFVVDPGQEYEVTVHHLPKPIPDGDPNHQSKNFLVPDCEDARMKVTTPCMSSGSLWDPNITVETLEAHQLRVSFTLWNESTHYQILLTSFPHMENHSCFEHMHHIPAPRPEEFHQRSNVTLTLRNLKWCCRHQVQIQPFFSSCLNDCLRHSVTVSCPEMPDTPEPIPDYMPLW
80%	V10 K109R (Fc fusion, Expressed in mammalian cells; not shown: human IgG1 engineered Fc from the mammalian expression vector) LRLLDHRAPVCSQPGLNCTVKNSTCLDDSWIHPRNLTPSSPKDLQIQLHFAHTQQGDLVPVAHIEWTLQTDASILYLEGAELSVLQLNTNERLCVRFEFLSKLRHHHRRWRFTFSHFVVDPGQEYEVTVHHLPKPIPDGDPNHQSKNFLVPDCEHPRMKVTTPCMSSGSLWDPNITVETLEAHQLRVSFTLWNESTHYQILLTSFPHMENHSCFEHMHHIPAPRPEEFHQRSNVTLTLRNLKGCCRHQVQIQPFFSSCLNDCLRHSATVSCPEMPDTPEPIPDYMPLW
85%	V3 P10L (Fc fusion, Expressed in mammalian cells; not shown: human IgG1 engineered Fc from the mammalian expression vector) LRLLDHRALVCSQPGLNCTVKNSTCLDDSWIHPRNLTPSSPKDLQIQLHFAHTQQGDLFPVAHIEWTLQTDASILYLEGAELSVLQLNTNERLCVRFEFLSKLRHHHKRWRFTFSHFVVDPGQEYEVTVHHLPKPIPDGDPNHQSKNFLVPDCEDARMKVTTPCMSSGSLWDPNITVETLEAHQLRVSFTLWNESTHYQILLTSFPHMENHSCFEHMHHIPAPRPEEFHQRSNVTLTLRNLKWCCRHQVQIQPFFSSCLNDCLRHSVTVSCPEMPDTPEPIPDYMPLW
80%	V3M V268A (Fc fusion, Expressed in mammalian cells; also called V3 V268A; not shown: human IgG1 engineered Fc from the mammalian expression vector) LRLLDHRAPVCSQPGLNCTVKNSTCLDDSWIHPRNLTPSSPKDLQIQLHFAHTQQGDLFPVAHIEWTLQTDASILYLEGAELSVLQLNTNERLCVRFEFLSKLRHHHKRWRFTFSHFVVDPGQEYEVTVHHLPKPIPDGDPNHQSKNFLVPDCEDARMKVTTPCMSSGSLWDPNITVETLEAHQLRVSFTLWNESTHYQILLTSFPHMENHSCFEHMHHIPAPRPEEFHQRSNVTLTLRNLKWCCRHQVQIQPFFSSCLNDCLRHSATVSCPEMPDTPEPIPDYMPLW
